# According to publication PMC11095200:
# Biological target: StAR (UniProt P51557)
# Test: co-immunoprecipitation and western blot
# Conditions: reference: wild-type 14-3-3γ; sites S71
substance,measurement,value
14-3-3γ (from UniProt P61982) S71A 14-3-3γ,binding against the reference,weaker
